Laboratory results reported in US20210032299A1 (Eli Lilly, published 2021).
Starred links: 1 amine or outer side, 2 acyl side, 3 side chain; linkers in the order of their positions; H or OH if unused. Non-standard residues stand in square brackets, D forms with d. Groups on a side chain read outwards from the residue. No end group written: not given here. *: point of attachment. C20 diacid = O=C(O)CCCCCCCCCCCCCCCCCCC(=O)*; C18 diacid = O=C(O)CCCCCCCCCCCCCCCCC(=O)*; γGlu = O=C(O)[C@H](CCC(=O)[*:2])N[*:1]; 4Pal = N[C@@H](Cc1ccncc1)C(=O)O; αMeL = CC(C)C[C@](C)(N)C(=O)O; AEEA = NCCOCCOCC(=O)O; Aib = CC(C)(N)C(=O)O

Experiments:
[1] = molecular target: T1, human glucose-dependent insulinotropic polypeptide (GIP) receptor (human, UniProt P48546 22-466); test: SPA, displacement of [125I]-GIP from hGIPR membranes, 0.1% bacitracin
T1 construct: whole, on cells; Assayed as crude membranes of stably transfected CHO cells; also called hGIPR; human GIP receptor
T1 sequence (looked up): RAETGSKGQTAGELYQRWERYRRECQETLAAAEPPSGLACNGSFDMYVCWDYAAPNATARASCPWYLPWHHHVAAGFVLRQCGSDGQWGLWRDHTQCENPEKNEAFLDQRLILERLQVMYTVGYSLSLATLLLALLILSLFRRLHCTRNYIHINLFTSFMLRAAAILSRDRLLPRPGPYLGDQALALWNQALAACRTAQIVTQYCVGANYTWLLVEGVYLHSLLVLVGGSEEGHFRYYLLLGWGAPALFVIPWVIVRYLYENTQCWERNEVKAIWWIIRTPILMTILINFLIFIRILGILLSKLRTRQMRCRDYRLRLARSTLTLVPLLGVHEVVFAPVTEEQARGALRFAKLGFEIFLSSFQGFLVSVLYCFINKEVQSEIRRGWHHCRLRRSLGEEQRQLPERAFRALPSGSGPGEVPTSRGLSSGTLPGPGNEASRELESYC

[2] = molecular target: T2, human GLP-1 receptor (human, UniProt P43220 24-463); test: SPA, displacement of [125I]-GLP-1 from hGLP-1R membranes, 0.1% bacitracin
T2 construct: whole, on cells; Assayed as crude membranes of stably transfected HEK293 cells; also called hGLP1R; hGLP-1R
Procedure: The binding buffer contains 25 mM HEPES, pH 7.4, 2.5 mM CaCl₂, 1 mM MgCl₂, 0.1% (w/v) bacitracin, 0.003% (w/v) TWEEN®-20, and Roche Complete™ Protease Inhibitors without EDTA.
Data are analyzed using four-parameter (curve maximum, curve minimum, […], Hill slope) nonlinear regression routines (Genedata Screener, version 12.0.4, Genedata AG, Basal, Switzerland). […] Values for Kᵢ are reported as the geometric mean, with error expressed as the standard error of the mean (SEM) and n is equal to the number of independent replicates (determined in assays performed on different days). Geometric Means are calculated as follows: […]

[3] = molecular target: T3, human glucagon receptor (human, UniProt P47871 26-477); test: SPA, displacement of [125I]-Gcg from hGcgR membranes, 0.1% bacitracin
T3 construct: whole, on cells; Assayed as crude membranes of stably transfected HEK293 cells; also called hGcgR; GcgR
Procedure: The binding buffer contains 25 mM 4-(2-hydroxyethyl)-1-piperazineethanesulfonic acid (HEPES), pH 7.4, 2.5 mM CaCl₂), 1 mM MgCl₂, 0.1% (w/v) bacitracin (Research Products), 0.003% (w/v) Polyoxyethylenesorbitan monolaurate (TWEEN®-20), and Roche Complete™ Protease Inhibitors without EDTA. […] Plates are sealed and mixed on a plate shaker (setting 6) for 1 minute and read with a PerkinElmer Trilux MicroBeta® scintillation counter after 12 hours of incubation/settling time at room temperature.
Data are analyzed using four-parameter (curve maximum, curve minimum, […], Hill slope) nonlinear regression routines (Genedata Screener, version 12.0.4, Genedata AG, Basal, Switzerland). […] Values for Kᵢ are reported as the geometric mean, with error expressed as the standard error of the mean (SEM) and n is equal to the number of independent replicates (determined in assays performed on different days).

T3 sequence (P47871 26-477): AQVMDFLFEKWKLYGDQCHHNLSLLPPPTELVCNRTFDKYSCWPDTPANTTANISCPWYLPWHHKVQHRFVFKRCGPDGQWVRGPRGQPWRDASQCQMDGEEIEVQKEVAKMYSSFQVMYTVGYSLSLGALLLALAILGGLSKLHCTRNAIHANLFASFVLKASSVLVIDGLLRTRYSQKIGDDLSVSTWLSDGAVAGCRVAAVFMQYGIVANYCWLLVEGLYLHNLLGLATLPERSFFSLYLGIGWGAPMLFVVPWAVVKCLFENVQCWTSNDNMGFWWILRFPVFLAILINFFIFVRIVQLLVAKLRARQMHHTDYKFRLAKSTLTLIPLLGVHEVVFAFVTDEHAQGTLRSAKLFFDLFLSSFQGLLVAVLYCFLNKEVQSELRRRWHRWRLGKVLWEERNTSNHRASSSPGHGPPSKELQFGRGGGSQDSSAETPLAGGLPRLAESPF

B1: Example 22 (peptide)
peptide: Y[Aib]EGTFISDYSILLDKK([AEEA-AEEA-γGlu-C18 diacid])HQ[Aib]DFVE[4Pal]LLAGGPSSGAPPPS-NH2
modifications: N-terminus assumed
SMILES: CC[C@H](C)[C@H](NC(=O)[C@H](CO)NC(=O)[C@H](Cc1ccc(O)cc1)NC(=O)[C@H](CC(=O)O)NC(=O)[C@H](CO)NC(=O)[C@@H](NC(=O)[C@H](Cc1ccccc1)NC(=O)[C@@H](NC(=O)CNC(=O)[C@H](CCC(=O)O)NC(=O)C(C)(C)NC(=O)[C@@H](N)Cc1ccc(O)cc1)[C@@H](C)O)[C@@H](C)CC)C(=O)N[C@@H](CC(C)C)C(=O)N[C@@H](CC(C)C)C(=O)N[C@@H](CC(=O)O)C(=O)N[C@@H](CCCCN)C(=O)N[C@@H](CCCCNC(=O)COCCOCCNC(=O)COCCOCCNC(=O)CC[C@H](NC(=O)CCCCCCCCCCCCCCCCC(=O)O)C(=O)O)C(=O)N[C@@H](Cc1c[nH]cn1)C(=O)N[C@@H](CCC(N)=O)C(=O)NC(C)(C)C(=O)N[C@@H](CC(=O)O)C(=O)N[C@@H](Cc1ccccc1)C(=O)N[C@H](C(=O)N[C@@H](CCC(=O)O)C(=O)N[C@@H](Cc1ccncc1)C(=O)N[C@@H](CC(C)C)C(=O)N[C@@H](CC(C)C)C(=O)N[C@@H](C)C(=O)NCC(=O)NCC(=O)N1CCC[C@H]1C(=O)N[C@@H](CO)C(=O)N[C@@H](CO)C(=O)NCC(=O)N[C@@H](C)C(=O)N1CCC[C@H]1C(=O)N1CCC[C@H]1C(=O)N1CCC[C@H]1C(=O)N[C@@H](CO)C(N)=O)C(C)C
- Ki [1]: 0.219 nM
- Ki [2]: 388 nM

B2: Example 21 (peptide)
peptide: Y[Aib]EGTFISDYSIALDKK([AEEA-AEEA-γGlu-C18 diacid])HQ[Aib]DFVE[4Pal]LLAGGPSSGAPPPS-NH2
modifications: N-terminus assumed
SMILES: CC[C@H](C)[C@H](NC(=O)[C@H](CO)NC(=O)[C@H](Cc1ccc(O)cc1)NC(=O)[C@H](CC(=O)O)NC(=O)[C@H](CO)NC(=O)[C@@H](NC(=O)[C@H](Cc1ccccc1)NC(=O)[C@@H](NC(=O)CNC(=O)[C@H](CCC(=O)O)NC(=O)C(C)(C)NC(=O)[C@@H](N)Cc1ccc(O)cc1)[C@@H](C)O)[C@@H](C)CC)C(=O)N[C@@H](C)C(=O)N[C@@H](CC(C)C)C(=O)N[C@@H](CC(=O)O)C(=O)N[C@@H](CCCCN)C(=O)N[C@@H](CCCCNC(=O)COCCOCCNC(=O)COCCOCCNC(=O)CC[C@H](NC(=O)CCCCCCCCCCCCCCCCC(=O)O)C(=O)O)C(=O)N[C@@H](Cc1c[nH]cn1)C(=O)N[C@@H](CCC(N)=O)C(=O)NC(C)(C)C(=O)N[C@@H](CC(=O)O)C(=O)N[C@@H](Cc1ccccc1)C(=O)N[C@H](C(=O)N[C@@H](CCC(=O)O)C(=O)N[C@@H](Cc1ccncc1)C(=O)N[C@@H](CC(C)C)C(=O)N[C@@H](CC(C)C)C(=O)N[C@@H](C)C(=O)NCC(=O)NCC(=O)N1CCC[C@H]1C(=O)N[C@@H](CO)C(=O)N[C@@H](CO)C(=O)NCC(=O)N[C@@H](C)C(=O)N1CCC[C@H]1C(=O)N1CCC[C@H]1C(=O)N1CCC[C@H]1C(=O)N[C@@H](CO)C(N)=O)C(C)C
- Ki [1]: 1.46 nM
- Ki [2]: 801 nM

B3: Example 35 (peptide)
peptide: Y[Aib]EGT[αMeL]ISDYSIALDKK([AEEA-AEEA-γGlu-C20 diacid])HQ[Aib]EFVNYLLATGPSSGAPPPS-NH2
modifications: N-terminus assumed
SMILES: CC[C@H](C)[C@H](NC(=O)[C@H](CO)NC(=O)[C@H](Cc1ccc(O)cc1)NC(=O)[C@H](CC(=O)O)NC(=O)[C@H](CO)NC(=O)[C@@H](NC(=O)[C@](C)(CC(C)C)NC(=O)[C@@H](NC(=O)CNC(=O)[C@H](CCC(=O)O)NC(=O)C(C)(C)NC(=O)[C@@H](N)Cc1ccc(O)cc1)[C@@H](C)O)[C@@H](C)CC)C(=O)N[C@@H](C)C(=O)N[C@@H](CC(C)C)C(=O)N[C@@H](CC(=O)O)C(=O)N[C@@H](CCCCN)C(=O)N[C@@H](CCCCNC(=O)COCCOCCNC(=O)COCCOCCNC(=O)CC[C@H](NC(=O)CCCCCCCCCCCCCCCCCCC(=O)O)C(=O)O)C(=O)N[C@@H](Cc1c[nH]cn1)C(=O)N[C@@H](CCC(N)=O)C(=O)NC(C)(C)C(=O)N[C@@H](CCC(=O)O)C(=O)N[C@@H](Cc1ccccc1)C(=O)N[C@H](C(=O)N[C@@H](CC(N)=O)C(=O)N[C@@H](Cc1ccc(O)cc1)C(=O)N[C@@H](CC(C)C)C(=O)N[C@@H](CC(C)C)C(=O)N[C@@H](C)C(=O)N[C@H](C(=O)NCC(=O)N1CCC[C@H]1C(=O)N[C@@H](CO)C(=O)N[C@@H](CO)C(=O)NCC(=O)N[C@@H](C)C(=O)N1CCC[C@H]1C(=O)N1CCC[C@H]1C(=O)N1CCC[C@H]1C(=O)N[C@@H](CO)C(N)=O)[C@@H](C)O)C(C)C
- Ki [1]: 0.0351 nM
- Ki [2]: 177 nM

B4: Example 55 (peptide)
peptide: YXEGTXISDYSIXLDKKHQXDFVEXLLAGGPSSGAPPPS
modifications: Aib2; Iva6; αMeL13; K17((2-[2-(2-Amino-ethoxy)-ethoxy]-acetyl)2-(γ-Glu)-CO-(CH2)18-CO2H); Aib20; 4-Pal25; C-terminal amide
- Ki [1]: 0.0331 nM
- Ki [2]: 262 nM

B5: Example 45 (peptide)
peptide: Y[Aib]EGTFISDYSI[αMeL]LDKK([AEEA-AEEA-γGlu-C20 diacid])HQ[Aib]DFVE[4Pal]LLETGPSSGAPPPS-NH2
modifications: N-terminus assumed
SMILES: CC[C@H](C)[C@H](NC(=O)[C@H](Cc1ccccc1)NC(=O)[C@@H](NC(=O)CNC(=O)[C@H](CCC(=O)O)NC(=O)C(C)(C)NC(=O)[C@@H](N)Cc1ccc(O)cc1)[C@@H](C)O)C(=O)N[C@@H](CO)C(=O)N[C@@H](CC(=O)O)C(=O)N[C@@H](Cc1ccc(O)cc1)C(=O)N[C@@H](CO)C(=O)N[C@H](C(=O)N[C@@](C)(CC(C)C)C(=O)N[C@@H](CC(C)C)C(=O)N[C@@H](CC(=O)O)C(=O)N[C@@H](CCCCN)C(=O)N[C@@H](CCCCNC(=O)COCCOCCNC(=O)COCCOCCNC(=O)CC[C@H](NC(=O)CCCCCCCCCCCCCCCCCCC(=O)O)C(=O)O)C(=O)N[C@@H](Cc1c[nH]cn1)C(=O)N[C@@H](CCC(N)=O)C(=O)NC(C)(C)C(=O)N[C@@H](CC(=O)O)C(=O)N[C@@H](Cc1ccccc1)C(=O)N[C@H](C(=O)N[C@@H](CCC(=O)O)C(=O)N[C@@H](Cc1ccncc1)C(=O)N[C@@H](CC(C)C)C(=O)N[C@@H](CC(C)C)C(=O)N[C@@H](CCC(=O)O)C(=O)N[C@H](C(=O)NCC(=O)N1CCC[C@H]1C(=O)N[C@@H](CO)C(=O)N[C@@H](CO)C(=O)NCC(=O)N[C@@H](C)C(=O)N1CCC[C@H]1C(=O)N1CCC[C@H]1C(=O)N1CCC[C@H]1C(=O)N[C@@H](CO)C(N)=O)[C@@H](C)O)C(C)C)[C@@H](C)CC
- Ki [3]: 660 nM
- Ki [1]: 0.0663 nM

B6: Example 49 (peptide)
peptide: Y[Aib]EGTFISDYSI[αMeL]LDKK([AEEA-AEEA-γGlu-C18 diacid])HQ[Aib]DFVE[4Pal]LLAGGPSSGAPPPS-NH2
modifications: N-terminus assumed
SMILES: CC[C@H](C)[C@H](NC(=O)[C@H](Cc1ccccc1)NC(=O)[C@@H](NC(=O)CNC(=O)[C@H](CCC(=O)O)NC(=O)C(C)(C)NC(=O)[C@@H](N)Cc1ccc(O)cc1)[C@@H](C)O)C(=O)N[C@@H](CO)C(=O)N[C@@H](CC(=O)O)C(=O)N[C@@H](Cc1ccc(O)cc1)C(=O)N[C@@H](CO)C(=O)N[C@H](C(=O)N[C@@](C)(CC(C)C)C(=O)N[C@@H](CC(C)C)C(=O)N[C@@H](CC(=O)O)C(=O)N[C@@H](CCCCN)C(=O)N[C@@H](CCCCNC(=O)COCCOCCNC(=O)COCCOCCNC(=O)CC[C@H](NC(=O)CCCCCCCCCCCCCCCCC(=O)O)C(=O)O)C(=O)N[C@@H](Cc1c[nH]cn1)C(=O)N[C@@H](CCC(N)=O)C(=O)NC(C)(C)C(=O)N[C@@H](CC(=O)O)C(=O)N[C@@H](Cc1ccccc1)C(=O)N[C@H](C(=O)N[C@@H](CCC(=O)O)C(=O)N[C@@H](Cc1ccncc1)C(=O)N[C@@H](CC(C)C)C(=O)N[C@@H](CC(C)C)C(=O)N[C@@H](C)C(=O)NCC(=O)NCC(=O)N1CCC[C@H]1C(=O)N[C@@H](CO)C(=O)N[C@@H](CO)C(=O)NCC(=O)N[C@@H](C)C(=O)N1CCC[C@H]1C(=O)N1CCC[C@H]1C(=O)N1CCC[C@H]1C(=O)N[C@@H](CO)C(N)=O)C(C)C)[C@@H](C)CC
- Ki [1]: 0.0512 nM
- Ki [2]: 596 nM
